Reference: the supplement of paper PMC7125110
± gives the standard error. Fewer inactive variants are shown than the library holds.

B1: glmS ribozyme (parent)
chain: AUAAAAGCGCCAGAACUACAGAAAUGUAGUUGACGAGGAGGAGGUUUAUCGAAUUUUCGGCGGAUGCCUCCAAA

Variants of: B1
Assay: self-cleavage kobs at 2500 uM GlcN6P; higher = faster cleavage; RNA array
Conditions: with glucosamine-6-phosphate
Outline: (§1)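 In situ transcription by E. coli RNA polymerase produced barcoded ribozyme variants on sequenced MiSeq chips, and a hybridised Cy3 probe tracked them at 37 °C. Glucosamine-6-phosphate was flowed in at 40 μM to 10 mM in HEPES/KCl/Mg(OAc)2 buffer. kcat and KM were taken from weighted Michaelis–Menten fits of kobs values from exponential decay fits.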

Variant | self-cleavage kobs at 2500 uM GlcN6P
A15G C34A G63A | < 1e-05 s⁻¹
A14U G40C G66C | 9.83e-05 ± 2.2e-05 s⁻¹
A15U A39C U45A | 0.000454 ± 0.00014 s⁻¹
A14C A39C U65G | < 1e-05 s⁻¹
A14U G29U C50G C68U | 0.000156 ± 3.8e-05 s⁻¹
A14G U45A U69A | 0.000801 ± 0.00024 s⁻¹
A14U G51A C58G G60U G63U U65A | < 1e-05 s⁻¹
A15U A48C G59A G60U | < 1e-05 s⁻¹
G13U A48U G59C G62U | < 1e-05 s⁻¹
A14U A33U A53C G63U | < 1e-05 s⁻¹
A15C U30A U31C A48U | 7.36e-05 ± 3e-05 s⁻¹
G13C U30C C71G | 4.16e-05 ± 2.1e-05 s⁻¹
A14C U31C A36G G38C G41U G51U | < 1e-05 s⁻¹
A14C C16U C68G | 9.4e-05 ± 2.8e-05 s⁻¹
A15G U55G C71U | 0.00368 ± 0.0014 s⁻¹
A15U G44C A53U C58G C70U | < 1e-05 s⁻¹
A14C A39C C71U | 4.93e-05 ± 1.7e-05 s⁻¹
A14G C16G U30G U49C U54A C67G C68U | < 1e-05 s⁻¹
A14U U46A A52U C58A | < 1e-05 s⁻¹
G13U C16U A39U A53G | 0.000359 ± 0.00012 s⁻¹
A14U G40U G60A C70G C71U | < 1e-05 s⁻¹
A14G U30A C50A | 8.06e-05 ± 2.8e-05 s⁻¹
A14G A15U A48U | 0.000128 ± 4.1e-05 s⁻¹
G13C G59A G66A C68U | < 1e-05 s⁻¹
A14U C34A A48G C68G C71A | < 1e-05 s⁻¹
G13C G41A G62C | < 1e-05 s⁻¹
A14G U45G C71U | 0.0021 ± 0.0006 s⁻¹

Variant | self-cleavage kobs at 2500 uM GlcN6P
A15G G44A U65A | 8e-05 ± 2e-05 s⁻¹
A14C U30C G32A C58G | 7.82e-05 ± 3.2e-05 s⁻¹
A14U A42C U54A | < 1e-05 s⁻¹
A15C U49G C58G | < 1e-05 s⁻¹
A15U U30G C68G | 4.51e-05 ± 1.8e-05 s⁻¹
A14U G51U G60U | < 1e-05 s⁻¹
A15G G32A G35U A52C | < 1e-05 s⁻¹
A15C A36C A48U | < 1e-05 s⁻¹
A15G A36U G43C | < 1e-05 s⁻¹
A14C A39G C58G | 5e-05 ± 1.9e-05 s⁻¹
A14G G43C U57C | < 1e-05 s⁻¹
A15G G37U C61A C68A C70G | 4.28e-05 ± 2e-05 s⁻¹
A15C U31A A53G C71G | 0.000222 ± 4.5e-05 s⁻¹
A14G A15U U46C | 0.00169 ± 0.00048 s⁻¹
A15U U31G G40A | 0.000101 ± 2.5e-05 s⁻¹
G13U U49C C50A G59A C70G | 3.99e-05 ± 2e-05 s⁻¹
C16A A33C G40A U56C C67U | < 1e-05 s⁻¹
A14C U45A A64U | 4.3e-05 ± 1.9e-05 s⁻¹
A14C G29C A64G | 5.47e-05 ± 2e-05 s⁻¹
A14G G41A G60U | < 1e-05 s⁻¹
G13U A36U A53C | < 1e-05 s⁻¹
G13U U47G U54A G62A | < 1e-05 s⁻¹
A15U C16G U30A A33G G59A | < 1e-05 s⁻¹
A14U A48C C70U | 3.58e-05 ± 1.6e-05 s⁻¹
G13U G38A U55A A64U | < 1e-05 s⁻¹
G13U A42C U47C U57C | < 1e-05 s⁻¹
A14C A15U C61U C67A | < 1e-05 s⁻¹

Variant | self-cleavage kobs at 2500 uM GlcN6P
A15G A39U G41A | 0.000369 ± 0.0001 s⁻¹
A14U A48C U69A | < 1e-05 s⁻¹
C16A A36C A42C U55C U56A U57G C58U C71G | < 1e-05 s⁻¹
A14U U54C U65G | 0.000411 ± 0.00014 s⁻¹
A15U U30C U31A | 0.0213 ± 0.0088 s⁻¹
A14G G29A G44A | 6.19e-05 ± 2.1e-05 s⁻¹
A15C C16G U31A A53G C58A | 4.06e-05 ± 1.5e-05 s⁻¹
A14U G32C U47A | 8.18e-05 ± 1.8e-05 s⁻¹
G13U A36G G38C C50A | < 1e-05 s⁻¹
G13U A14G U47C | 8e-05 ± 2.7e-05 s⁻¹
G13C C61A C68G | < 1e-05 s⁻¹
A15G A48C C50U | < 1e-05 s⁻¹
A15G G38A A48U | < 1e-05 s⁻¹
G13C C71U | 9.01e-05 ± 1.5e-05 s⁻¹
A14U C16U U47G C58U G60A U69G | 0.000102 ± 2.6e-05 s⁻¹
G13C G44C A53U | < 1e-05 s⁻¹
G13U C34U A39G G62A | < 1e-05 s⁻¹
G13U A48C C61A | < 1e-05 s⁻¹
A14C U56C C67U | < 1e-05 s⁻¹
A15U G32A A39U C71U | 0.000236 ± 0.00011 s⁻¹
A14C G32A C67G | 6.42e-05 ± 1.9e-05 s⁻¹
G13U A53C | 9.93e-05 ± 1.9e-05 s⁻¹
G13U U31G G37C A48C | < 1e-05 s⁻¹
A15G U30G A64G | 0.00272 ± 0.00073 s⁻¹
A15U G40A A52C G66U | < 1e-05 s⁻¹

Variants of: B1
Assay: self-cleavage kobs at 10000 uM GlcN6P; higher = faster cleavage; RNA array
Conditions: with glucosamine-6-phosphate
Outline: as §1

Variant | self-cleavage kobs at 10000 uM GlcN6P
A14U G40C G66C | 0.00012 ± 2.4e-05 s⁻¹
A14G C16G U30G U49C U54A C67G C68U | < 1e-05 s⁻¹
A14U C34A A48G C68G C71A | 0.000226 ± 7.7e-05 s⁻¹
A14C A39G C58G | 8.88e-05 ± 1.6e-05 s⁻¹
G13U A36U A53C | < 1e-05 s⁻¹
G13U A42C U47C U57C | < 1e-05 s⁻¹
G13U A14G U47C | 0.000208 ± 5.4e-05 s⁻¹
G13C C71U | 0.000149 ± 1.6e-05 s⁻¹
A15U G32A A39U C71U | 0.000208 ± 6.3e-05 s⁻¹
